# Test results taken from patent US20240115742A1, “FLUORINATED FIBERS FOR MULTIMODAL 1H AND 19F MRI, ULTRASOUND, FLUORESCENCE DETECTION AND CONFORMATIONAL AND TEMPERATURE DETECTION BY 19F MRS” (New York University, priority 2022, published 2024).
# Square brackets hold non-standard residues; d marks the D form. Ends that are not written are not given here. LTF = trifluoroleucine
# Columns and labels:
# Format in all cases: physicochemical
# TEM of protein fibers = conditions: for average protein fiber diameter (TEM): fibers, 50 mM NaH2PO4 pH 4.0
# Description: (§1) Transmission Electron Microscopy. Transmission electron microscopy (TEM) images were taken with a FEI Talos L120C transmission electron microscope. Protein fiber samples were diluted to 50 μM and 3 μL was spotted on Formvar/carbon-coated copper grids followed by 5 μL wash with water, and 3 μL staining with 1% v/v uranyl acetate solution each with incubation times of 1 min at RT. Fibrils were sized in ImageJ software (Version 1.52q).
# as §1, with “Samples” for “Protein fiber samples”, “by a” for “by”, “min. Between steps, filter paper was used to wick the grids. Following imaging, fibrils” for “min at RT. Fibrils”
# [1] = ATR-FTIR peak deconvolution of secondary structure
# Description: Attenuated Total Reflectance-Fourier Transform Infrared Spectroscopy. Secondary structure of protein fiber variants was confirmed using attenuated total reflectance-Fourier transform infrared (ATR-FTIR) spectroscopy using the Nicolet 6700 Fourier Transform Infrared Spectrometer equipped with a diamond ATR accessory and a mercury cadmium telluride (MCT)-A detector. Spectra were collected for 5 μL of 500 μM protein from 4000-400 cm^−1 with 0.5 cm^−1 increments at room temperature (RT). For CCM bound protein, protein was bound at a final concentration of 500 μM and saturated with CCM as determined by fluorescent spectroscopic drug binding with a final 1% v/v DMSO. Sample spectra were normalized using buffer background and analyzed from 1700-1600 cm^−1 corresponding to the amide I region. Peaks were deconvoluted using Gaussian functions in PeakFit software until the goodness of fit reached r^2≥0.99. Peaks were associated with secondary structure were determined by methods known in the art.
# (§2) Attenuated Total Reflectance-Fourier Transform Infrared Spectroscopy. Secondary structure of Q2 protein was confirmed using attenuated total reflectance-Fourier transform infrared (ATR-FTIR) spectroscopy using the Nicolet 6700 Fourier Transform Infrared Spectrometer equipped with a diamond ATR accessory and a mercury cadmium telluride (MCT)-A detector. Spectra were collected for 5 μL of 2 mM protein from 4000-400 cm^−1 with 0.5 cm^−1 increments. Sample spectra were normalized using buffer background and analyzed from 1700-1600 cm^−1 corresponding to the amide I region. Peaks were deconvoluted using Gaussian functions in PeakFit software until the goodness of fit reached r^2>0.99.
# as §2, with “of Q2LTF and QLTF” for “of Q2”, “using a” for “using the”, “of 1” for “of 2”, “with 4.0” for “with 0.5”, “reached r^2≥0.99.” for “reached r^2>0.99.”
# Attenuated Total Reflectance-Fourier Transform Infrared Spectroscopy. Secondary structure before (solution) and after gelation (gel) was also assessed by peak deconvolution of attenuated total reflectance-Fourier transform infrared (ATR-FTIR) spectra. ATR-FTIR measurements were performed using a Nicolet 6700 Fourier Transform Infrared Spectrometer equipped with a mercury cadmium telluride (MCT)-A detector. Spectra were collected for 5 μL samples of protein at 2 mM from 4000-400 cm^−1 with a 4.0 cm^−1 resolution, normalized, and buffer-subtracted prior to analysis from 1700-1600 cm^−1, corresponding to the amide I region. ATR-FTIR measurements were performed immediately after concentration to 2 mM for solution measurements and after. Peaks were deconvoluted using Gaussian functions in PeakFit software until the goodness of fit reached r^2≥0.99.
# [2] = CD temperature scans (melting temperature)
# Description: Circular Dichroism Spectroscopy. Secondary structure was first assessed using the Jasco J-815 CD spectrometer with a PTC-423S single position Peltier temperature control system. Wavelength scans were performed from 190 to 250 nm using 15 μM samples at 1 nm step sizes at 25° C. Temperature scans were performed at α-helical minimum 222 nm from 20 to 85° C. The mean residue ellipticity (MRE) was calculated as described previously. MRE at 222 nm and 208 nm and their ratios were used to assess relative helicity.
# Circular Dichroism Spectroscopy. The secondary structure of Q2LTF and QLTF was assessed using a Jasco J-815 circular dischroism (CD) spectrometer with a PTC-423S single position Peltier temperature control system. Wavelength scans were performed from 195 to 250 nm at 1 nm step sizes by diluting the protein into water (at approximately 10 μM) in order to minimize the effects of sodium chloride. […] The mean residue ellipticity (MRE) was calculated as described.
# [3] = TEM of hydrogel nanofibers; conditions: gel after incubation at 4 °C
# Description: as §1, with “The supramolecular assembly of Q2 and Q were monitored over the course of 60 and 144 hours, respectively (in correspondence with tube inversion and microrheology). TEM images were taken of the gel at times consistent with when microrheological measurements for Q2 for consistent fibril sizing. Samples” for “Protein fiber samples”, “min. Following imaging, fibrils” for “min at RT. Fibrils”
# as §1, with “Samples” for “Protein fiber samples”, “[…]” for “5 μL”, “min. Between steps, filter paper was used to gently wick the grids dry. Following imaging, minimum diameter nanofibers within the physically crosslinked hydrogel” for “min at RT. Fibrils”
Substance,average protein fiber diameter (TEM) (TEM of protein fibers) [nm],"aggregated strands ([1]; Gel, 2 mM) [% composition]","aggregated strands ([1]; Solution, 2 mM) [% composition]",aggregated strands ([1]; native) [%],antiparallel β-sheet/aggregated strands ([1]; native) [%],change in α-helical content upon gelation ([1]; solution to gel),aggregated strands ([1]; w/CCM) [%],antiparallel β-sheet/aggregated strands ([1]; w/CCM) [%],"melting temperature ([2]; CCM-bound, pH 4.0) [°C]","melting temperature ([2]; native, 50 mM NaH2PO4 pH 4.0) [°C]",hydrogel fibril diameter (TEM) [3] [nm],"fiber assembly size by TEM (TEM of protein fibers; 2 mM, 50 mM Tris, 500 mM NaCl, pH 8.0, 4 °C, n=20) [nm]",diameter of large fiber aggregates (TEM of protein fibers; as E88) [nm],median fiber diameter (TEM of protein fibers; as E88) [nm],striation (protofibril) size by TEM (TEM of protein fibers; n=20) [nm],α-helical content [1] [%],"aggregated strands ([1]; fluorinated constructs, Tris buffer) [% composition]",melting temperature ([2]; in only water) [°C],"melting temperature ([2]; phosphate buffer (50 mM Na2HPO4, pH 8.0)) [°C]"
"Q2: coiled-coil protein redesigned from Q for reduced lateral assembly, SEQ ID NO: 11 (MRGSHHHHHHGSIEGRVKELLFLKKTAEQMLEELKETNKALHDVRHLLENQSKL) [Protein Q2]",91±37,2.3,2.1,3.9,20.6,+12.8%,10.6,0.0,59.9±6.3,43.4±4.0,28.9±8.6,,,,,,,,
"Q2LTF: protein-engineered fluorinated coiled-coil fiber, Q2 with trifluoroleucine, SEQ ID NO: 20 (MRGSHHHHHHGSIEGRVKE[LTF][LTF]F[LTF]KKTAEQM[LTF]EE[LTF]KETNKA[LTF]HDVRH[LTF][LTF]ENQSK[LTF]; ends and bridges not checked) [Protein Q2LTF]",,,,,,,,,,,,215.8±38.6,≤ 840,181.7,3.6±0.8,42.4±8.6,6.8,32.6±1.6,65.0±2.9
"Q3: Q variant with V44I pore mutation, SEQ ID NO: 12 (MRGSHHHHHHGSIEGRVKEILFLKNTAYQMLLELKETNEALYDIRHLLQQQSKL) [Protein Q3]",130±27,,,5.2,6.8,,17.8,7.6,61.9±2.0,61.0±4.9,32.8±9.8,,,,,,,,
"Q5: Q hydrogel variant from Rosetta Monte Carlo search, SEQ ID NO: 14 (MRGSHHHHHHGSIEGRVKEITFIKKTIEQIAEEMKEINKAIHDIRHALENISKK) [Protein Q5]",,,,,,,,,,,22.2±8.4,,,,,,,,
"Q: rationally designed pentameric coiled-coil derived from C, SEQ ID NO: 23 (MRGSHHHHHHGSIEGRVKEITFLKNTAPQMLRELQETNAALQDVRELLRQQSKL) [reference compound]",208±82,,,6.0,13.0,,15.4 ± 3.8,7.8,76.4±4.6,37.0±7.8,40.5±25.2,,,,,,,,
